For assay [1], the target named is T1, Human IL-33 (Axxora/Adipogen AG-40B-0038) (human, UniProt O95760 112-270, limits assumed).
T1 construct: Bought; also called IL-33 (Adipogen); biotinylated human IL-33
T1 sequence (looked up): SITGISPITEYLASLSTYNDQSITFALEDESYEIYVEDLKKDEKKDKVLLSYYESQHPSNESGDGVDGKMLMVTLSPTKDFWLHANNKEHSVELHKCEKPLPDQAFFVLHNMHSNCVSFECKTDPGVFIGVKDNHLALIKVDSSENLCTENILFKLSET
Nature of the assay: HTRF epitope competition: unlabelled IgG against DyLight labelled H338L293 for biotinylated human IL-33.

Assay [2] concerns the target T1, Human IL-33 (Axxora/Adipogen …). The assay can be described thus: cell-based or functional assay.
The target is the same in assay [3]. The assay can be described thus: cell-based or functional assay. The source holds these as a separate data set.
In the next assay the target is T2, 33_640237-2B IgG1.
T2 construct: IgG1
Nature of the assay: HTRF: unlabelled test protein competes with biotinylated human IL33-01 for DyLight650 labelled 33_640237-2B IgG. On the procedure: Human, cyno and mouse IL-33 FLAG® His (described in Example 1 and Table 21), Human IL-1 alpha and IL-1 beta (R&D Systems) (Table 21) or rat IL-33 (GenScript) were tested for inhibition of human IL-33 binding to DyLight650 labelled 33_640087-7B or DyLight650 labelled 33_640237-2B by adding 5 microlitres of each dilution of sample to a 384 well low volume assay plate (Costar, 3673). […] This was followed by the addition of 2.5 microlitres of a solution containing 0.12 nM biotinylated human IL-33-01 combined with 0.75 nM streptavidin cryptate detection (Cisbio International, 610SAKLB). All dilutions were performed in assay buffer containing 0.8 M potassium fluoride (VWR, 26820.236) and 0.1% bovine serum albumin (BSA, PAA, K05-013) in Dulbeccos PBS (Invitrogen, 14190185). Assay plates were incubated for 4 hours at room temperature followed by 18 hours at 4 degrees Celsius and time resolved fluorescence was read at 620 nm and 665 nm emission wavelengths using an EnVision plate reader (Perkin Elmer). Data were analysed by calculating the 665/620 nm ratio followed by the % Delta F values for each sample. The 665/620 nm ratio was used to correct for sample interference using Equation 1. The % Delta F for each sample was then calculated using Equation 2. The negative control (non-specific binding) was defined by replacing biotinylated human IL-33 combined with streptavidin cryptate detection with streptavidin cryptate detection only. The % Delta F values were subsequently used to calculate % specific binding as described in Equation 3. IC₅₀ values were determined using GraphPad Prism software by curve fitting using a four-parameter logistic equation (Equation 4).
In general terms: TR-FRET usually uses a lanthanide donor and a delayed reading to cut background.

The target of assay [4] is T3, Human IL-33 Flag®His (human).
T3 construct: Mature IL-33 with C-terminal FLAG 10xHis tag, from E. coli; biotinylated via free cysteines where used biotinylated; also called Mature Human IL-33_FH; human IL-33 FH
T3 chain: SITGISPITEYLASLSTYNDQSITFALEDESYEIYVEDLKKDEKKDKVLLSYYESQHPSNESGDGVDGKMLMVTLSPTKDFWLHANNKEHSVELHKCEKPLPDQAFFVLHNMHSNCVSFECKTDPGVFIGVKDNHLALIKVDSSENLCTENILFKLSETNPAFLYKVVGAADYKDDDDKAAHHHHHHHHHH
Nature of the assay: HTRF competition, IgG titrated against biotinylated human ST2-Fc. The procedure: (§1) The ability of anti-IL-33 antibodies to inhibit the binding of FLAG®-His tagged IL-33 to the ST2 receptor was assessed in a biochemical HTRF® (Homogeneous Time-Resolved Fluorescence, Cisbio International) competition assay, the principles of which are described above.
(§2) Activity of purified IgG preparations were determined by competing a dilution series of the purified IgG against biotinylated human or mouse ST2.Fc for binding to FLAG® His-tagged human, cynomolgus or mouse IL-33.
(§3) Purified or unpurified anti-IL-33 antibody samples were tested for inhibition of FLAG®-His tagged IL-33 binding ST2-Fc by adding 10 microlitres of each dilution of antibody test sample to a 384 well low volume assay plate (Costar 3676). Next, a solution containing 4 nM biotinylated human or mouse ST2-Fc and 20 nM streptavidin XL665 detection (Cisbio International, 611SAXLB) was prepared and 5 microlitres of the mix added to the assay plate. This was followed by the addition of 5 microlitres of a solution containing 1.2 nM FLAG®-His tagged human, cynomolgus or mouse IL-33 combined with 1.72 nM anti-FLAG® cryptate detection (Cisbio International, 61FG2KLB). All dilutions were performed in assay buffer comprised of Dulbeccos PBS (Invitrogen, 14190185) containing 0.8 M potassium fluoride (BDH 103444T) and 0.1% BSA (Sigma A9576). Assay plates were incubated for 2 hour at room temperature followed by 16 hour at 4° C. before reading time resolved fluorescence at 620 nm and 665 nm emission wavelengths using an EnVision plate reader (Perkin Elmer).

Assay [5] deals with T4, Cynomolgus IL-33 Flag®His (cynomolgus monkey).
T4 construct: C-terminal FLAG 10xHis tag, E. coli; also called Mature Cynomolugus IL-33; cyno IL-33 FH
T4 chain: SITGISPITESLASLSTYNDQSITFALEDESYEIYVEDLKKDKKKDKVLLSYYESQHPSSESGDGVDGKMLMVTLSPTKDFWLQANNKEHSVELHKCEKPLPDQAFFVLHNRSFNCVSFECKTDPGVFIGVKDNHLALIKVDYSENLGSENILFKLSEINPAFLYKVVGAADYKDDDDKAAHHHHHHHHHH
The description is as above. On the procedure: as §1, §2, §3

Assay [6] concerns the target T3, Human IL-33 Flag®His. The assay can be described thus: cell-based or functional assay.
Assay [7] deals with T5, Full-length human IL-33 (amino acids 1-270), HEK293-EBNA cell lysate (human, UniProt O95760 1-270).
T5 sequence (looked up): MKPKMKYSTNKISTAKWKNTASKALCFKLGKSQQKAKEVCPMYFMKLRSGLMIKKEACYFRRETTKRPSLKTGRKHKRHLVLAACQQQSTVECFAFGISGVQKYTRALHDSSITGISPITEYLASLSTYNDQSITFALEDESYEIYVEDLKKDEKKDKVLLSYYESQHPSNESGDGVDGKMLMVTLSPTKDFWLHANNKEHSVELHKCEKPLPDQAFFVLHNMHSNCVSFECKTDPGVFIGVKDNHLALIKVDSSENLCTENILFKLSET
The assay can be described thus: cell-based or functional assay.

The target in another assay is T6, Endogenous human IL-33 (human, UniProt O95760 1-270, limits assumed).
T6 sequence (looked up): T5 sequence (looked up)
The assay can be described thus: cell-based or functional assay.

The target of assay [8] is T3, Human IL-33 Flag®His. The assay can be described thus: SPR BIAcore 2000, IgG captured on Protein G', IL-33 as analyte, 1:1 Langmuir. The procedure:
(§4) The binding affinity of purified IgG samples of exemplary binding members to human and cynomolgus IL-33 was determined by surface plasmon resonance using BIAcore 2000 biosensor (BIAcore AB) essentially as described by Karlsson et al., J Immunol Methods 145(1-2):229-40 (1991). In brief, Protein G′ (Sigma Aldrich, P4689) was covalently coupled to the surface of a CM5 sensor chip using standard amine coupling reagents according to manufacturer's instructions (BIAcore). The protein G′ surface was used to capture purified anti-IL-33 antibodies via the Fc domain to provide a surface density of approximately 290 RU per cycle. Human or cynomolgus IL-33 prepared in HBS-EP buffer (BIAcore AB), at a range of concentrations, between 600 nM and 18.75 nM, were passed over the sensor chip surface. The surface was regenerated using two 10 mM Glycine washes of pH 1.7 and pH 1.5 between each injection of antibody. The resulting sensorgrams were evaluated using BIA evaluation 3.1 software and fitted to a 1:1 Langmuir binding model, to provide relative binding data. The binding results (KD, Ka, and Kd) for antibodies IL330002 and IL330004 binding to human or cynomolgus IL-33 are shown in Table 8.

The target in assay [9] is T4, Cynomolgus IL-33 Flag®His. Described as above. On the procedure:
as §4

Positions count from the first letter of the chain named.

The values below come from patent US20200353078A1 (AstraZeneca / MedImmune, published 2020).

B1: H338L293 IgG1 (as in Table 13) (antibody, V domains shown)
VH: EVQLLESGGGLVQPGGSLRLSCAASGFTFSSYAMSWVRQAPGKGLEWVSAISPREGWQYYADSVKGRFTISRDNSKNTLYLQMNSLRAEDTAVYYCVRVVAGYFDSWGRGTLVTVSS
VL: SYVLTQPPSVSVSPGQTARITCSGDALPKQYAHWYQQKPGQAPALVIYKDTERPSGIPERFSGSSSGTTVTLTISGVQAEDEADYYCMSSDPSGASRVFGGGTKVTVL
notes: IgG1
Consider B1, for which the “IC50 (read off the curve)” value in assay [1] was roughly 1 nM. In addition, in [2], the “Huvec IL-6 production, maximum inhibition” value is roughly 70% and the “Mast cell IL-6 production, inhibition” value came out at 100%. Further, in assay [3], the “IC50, Huvec IL-6 production” value was 1.9 nM and the “IC50, Mast cell IL-6 production” value stood at 1.7 nM.

B2: IL330396 IgG1 (antibody, V domains shown)
VH: EVQLLESGGGLVQPGGSLRLSCAASGFTFSSYAMSWVRQAPGKGLEWVSASTPWQGSTYYADSVKGRFTISRDNSKNTLYLQMNSLRAEDTAVYYCVRWYWGWIDSWGRGTLVTVSS
VL: B1 VL with P92D, S93T
notes: IgG1; also called IL3300396
As to B2, in [1], the “IC50 (read off the curve)” value is roughly 1 nM. In addition, in [2], the “Huvec IL-6 production, maximum inhibition” value was roughly 70% and the “Mast cell IL-6 production, inhibition” value is 100%.

B3: IL330388 IgG1 (antibody, V domains shown)
VH: B2 VH
VL: B1 VL
notes: IgG1; also called IL3300388
In the case of B3, in assay [1], the “IC50 (read off the curve)” value is roughly 1 nM. In assay [2], the “Huvec IL-6 production, maximum inhibition” value is roughly 70% and the “Mast cell IL-6 production, inhibition” value worked out at 100%.

B4: Mouse IL-33 Flag®His (ligand)
chain: SIQGTSLLTQSPASLSTYNDQSVSFVLENGCYVINVDDSGKDQEQDQVLLRYYESPCPASQSGDGVDGKKLMVNMSPIKDTDIWLHANDKDYSVELQRGDVSPPEQAFFVLHKKSSDFVSFECKNLPGTYIGVKDNQLALVEEKDESCNNIMFKLSKINPAFLYKVVGAADYKDDDDKAAHHHHHHHHHH
notes: C-terminal FLAG 10xHis tag, E. coli; also called Mature Mouse IL-33_FH; mouse IL-33 FH
For the molecule B4, in the assay with 33_640237-2B IgG1, the binding result was “no binding (tested: about 10^-5.5 M)”.

B5: IL330071 IgG1 (antibody, V domains shown)
VH: EVQLVESGAEVKQPGASVKVSCKASGYTFTSYGISWVRQAPGQGLEWMGWISAYNGNTNYAQKLQGRVTMTTDTSTSTAYMELRSLRSDDTAVYYCARRGFYHDAFDIWGRGTTVTVSS
VL: AIQLTQSPSSLSASVGDRVTITCRASQGISNYLAWYQQKPGKVPKLLIYAASTLQSGVPSRFSGSGSGTEFTLTISSLQPDDFATYYCQQYNSYSVTFGQGTKVEIK
notes: Human IgG1, lambda constant
One may read the IC50 as the point on the concentration scale where inhibition reaches its midpoint. Higher therefore signals a need for much substance. For B5, the half-inhibitory concentration (IC50) is 59 nM with Human IL-33 Flag®His [4] and 375 nM in assay [5]. For the same molecule, the “IC50, human ST2 transfected HeLa NFkB luciferase reporter assay” value with Human IL-33 Flag®His [6] was determined as 226 nM.

B6: Human ST2-Fc (R&D Systems, or source not stated in the example) (Fc fusion, UniProt Q01638 19-328, looked up, not shown: a dimerising Fc or GST)
chain: KFSKQSWGLENEALIVRCPRQGKPSYTVDWYYSQTNKSIPTQERNRVFASGQLLKFLPAAVADSGIYTCIVRSPTFNRTGYANVTIYKKQSDCNVPDYLMYSTVSGSEKNSKIYCPTIDLYNWTAPLEWFKNCQALQGSRYRAHKSFLVIDNVMTEDAGDYTCKFIHNENGANYSVTATRSFTVKDEQGFSLFPVIGAPAQNEIKEVEIGKNANLTCSACFGKGTQFLAAVLWQLNGTKITDFGEPRIQQEEGQNQSFSNGLACLDMVLRIADVKEEDLLLQYDCLALNLHGLRRHTVRLSRKNPIDHHS
With B6, in assay [7], the “IC50, Huvec IL-8 assay vs. full length IL-33 cell lysate” value is 0.67 nM. In the assay with Endogenous human IL-33, the “IC50, Huvec IL-8 release stimulated by human lung lysate” value was 0.019 nM.

B7: IL330002 IgG1 (antibody, V domains shown)
VH: not shown
VL: SYELTQPPSLSVSPGQTASITCSGDKLGDKYVSWYQQKPGQSPILVIYHDNKRPSGIPERFSGSNSGNTATLTISGTQAMDEADYYCQAWDSNAGYVFGTGTKVTVL
notes: Human IgG1, lambda constant
In general, Kd refers to the constant that tells how readily two partners part at equilibrium. By koff is commonly meant the first-order rate constant of dissociation. High values mean a short-lived complex, low ones a long-lived complex. The kon is the second-order rate constant of association. For the molecule B7, the IC50 in the assay with Human IL-33 Flag®His [4] is 27 nM; in assay [5], 42 nM. Moreover, in the assay with Human IL-33 Flag®His [6], the “IC50, human ST2 transfected HeLa NFkB luciferase reporter assay” value came out at 226 nM. For the same molecule, the results for the Kd (with Human IL-33 Flag®His [8]; in assay [9]) were 35 nM and 189 nM, respectively. Further, the koff with Human IL-33 Flag®His [8] amounted to 0.00218 s⁻¹; in assay [9], 0.00442 s⁻¹. The kon with Human IL-33 Flag®His [8] is 61600 M⁻¹ s⁻¹; in assay [9], 23400 M⁻¹ s⁻¹.
